From patent EP1752160A2 (Mannkind Corporation, dated 2007)

What was measured:
HLA-A2.1 [1] = biological target: T1, HLA-A2.1 (human); assay: HLA-A2 binding assay on T2 cells, flow cytometry
T1 construct: also called HLA-A*0201; HLA-A0201

HLA-A2.1 [2] = biological target: T1, HLA-A2.1; assay: T2 cell HLA-A*0201 stabilisation assay, flow cytometry
HLA-A2.1 [3] = biological target: T1, HLA-A2.1; assay: T2 cell HLA-A2.1 stabilisation assay, flow cytometry

binding result (HLA-A2.1 [1])	Binder	further results
binds	LPWHRLFLL (Synthetic 9-mer of tyrosinase; also called Tyr 208-216) [tyrosinase208-216]	–
binds	FLPWHRLFL (Synthetic 9-mer of tyrosinase; also called Tyr 207-215) [tyrosinase207-215]	–
–	MMNDQLMFL (9-mer of prostate specific membrane antigen) [PSMA663-671]	binding result (HLA-A2.1 [2]): binds
–	KASEKIFYV (Synthetic 9-mer of SSX-2) [SSX-2 41-49]	binding result (HLA-A2.1 [3]): binds
